# Reference: patent US20240342305A1 (published 2024)
# Numbering of substitutions follows the chain as printed.
# T1: recombinant human GPC2 (rhGPC2) (human, UniProt Q8N158 24-554, limits assumed)
# T1 sequence (looked up): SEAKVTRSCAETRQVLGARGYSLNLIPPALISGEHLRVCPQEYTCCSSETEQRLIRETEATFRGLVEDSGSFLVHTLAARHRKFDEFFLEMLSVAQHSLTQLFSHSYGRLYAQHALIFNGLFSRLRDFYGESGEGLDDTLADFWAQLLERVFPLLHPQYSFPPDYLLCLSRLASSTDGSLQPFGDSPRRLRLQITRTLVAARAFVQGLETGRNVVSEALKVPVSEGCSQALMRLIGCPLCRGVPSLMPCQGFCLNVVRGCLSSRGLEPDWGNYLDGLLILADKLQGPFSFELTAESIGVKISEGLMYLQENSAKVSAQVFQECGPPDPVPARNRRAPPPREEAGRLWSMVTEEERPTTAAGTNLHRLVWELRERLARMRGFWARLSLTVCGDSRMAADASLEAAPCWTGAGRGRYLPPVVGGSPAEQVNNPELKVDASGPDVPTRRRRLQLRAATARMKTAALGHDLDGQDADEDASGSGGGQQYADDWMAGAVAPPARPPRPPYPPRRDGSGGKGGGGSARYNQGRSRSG
# T2: recombinant human GPC6 (rhGPC6) (human, UniProt Q9Y625 24-529, limits assumed)
# T2 sequence (looked up): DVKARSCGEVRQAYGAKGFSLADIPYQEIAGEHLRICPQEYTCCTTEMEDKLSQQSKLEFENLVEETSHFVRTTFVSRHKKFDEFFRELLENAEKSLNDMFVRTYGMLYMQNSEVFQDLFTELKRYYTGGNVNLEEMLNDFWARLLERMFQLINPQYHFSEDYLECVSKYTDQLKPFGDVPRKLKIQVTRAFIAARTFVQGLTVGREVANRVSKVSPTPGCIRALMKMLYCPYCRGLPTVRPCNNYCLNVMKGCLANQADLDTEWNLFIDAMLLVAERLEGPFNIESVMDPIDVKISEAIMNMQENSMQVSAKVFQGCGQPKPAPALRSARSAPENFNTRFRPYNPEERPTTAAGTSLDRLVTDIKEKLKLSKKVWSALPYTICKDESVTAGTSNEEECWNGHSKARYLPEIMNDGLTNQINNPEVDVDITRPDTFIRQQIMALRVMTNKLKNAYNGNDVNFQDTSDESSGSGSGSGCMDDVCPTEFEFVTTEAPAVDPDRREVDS
# T3: recombinant human GPC5 (rhGPC5) (human, UniProt P78333 25-551, limits assumed)
# T3 sequence (looked up): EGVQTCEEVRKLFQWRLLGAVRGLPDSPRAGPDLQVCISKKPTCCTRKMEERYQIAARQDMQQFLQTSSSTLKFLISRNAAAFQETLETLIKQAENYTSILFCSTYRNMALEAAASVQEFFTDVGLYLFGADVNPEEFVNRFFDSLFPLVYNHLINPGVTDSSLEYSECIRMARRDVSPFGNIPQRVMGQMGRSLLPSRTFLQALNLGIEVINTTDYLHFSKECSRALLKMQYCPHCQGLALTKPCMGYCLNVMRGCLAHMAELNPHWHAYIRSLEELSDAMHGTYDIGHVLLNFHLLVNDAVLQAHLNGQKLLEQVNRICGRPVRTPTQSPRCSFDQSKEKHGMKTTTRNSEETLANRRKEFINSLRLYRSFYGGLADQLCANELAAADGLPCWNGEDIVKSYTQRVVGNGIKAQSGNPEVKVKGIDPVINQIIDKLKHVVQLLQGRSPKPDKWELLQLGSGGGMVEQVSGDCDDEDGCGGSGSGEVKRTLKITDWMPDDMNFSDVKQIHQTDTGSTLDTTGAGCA
# T4: recombinant human GPC1 (rhGPC1) (human, UniProt P35052 24-530, limits assumed)
# T4 sequence (looked up): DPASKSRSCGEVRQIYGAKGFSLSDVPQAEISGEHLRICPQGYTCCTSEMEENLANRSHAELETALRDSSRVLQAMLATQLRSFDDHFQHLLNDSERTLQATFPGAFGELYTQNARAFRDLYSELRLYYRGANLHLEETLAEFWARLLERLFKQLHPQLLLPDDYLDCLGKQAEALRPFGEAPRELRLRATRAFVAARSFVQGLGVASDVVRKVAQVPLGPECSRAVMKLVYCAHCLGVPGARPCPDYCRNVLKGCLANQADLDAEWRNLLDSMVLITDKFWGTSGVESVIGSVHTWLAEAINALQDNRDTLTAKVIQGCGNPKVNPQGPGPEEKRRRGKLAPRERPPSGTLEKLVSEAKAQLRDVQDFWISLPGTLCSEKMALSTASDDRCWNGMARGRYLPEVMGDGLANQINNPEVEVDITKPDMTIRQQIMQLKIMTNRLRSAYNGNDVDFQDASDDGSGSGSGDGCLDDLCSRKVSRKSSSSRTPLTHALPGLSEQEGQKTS
# B1: P7D4 mutant single chain antibody am4 (scFv, not shown: a dimerising Fc or GST)
# scFv: QVQLQESGGGLVQPGRSLRLSCAASGFTFSTYAMTWVRQAPGKGLEWVSSISSSGESTYYADSVKGRFTISRDNSKNTLYLQMNSLRAEDTAVYYCAKDRRGSHADAFDVWGQGTLVTVSSGGGGSGGGGSGGGGSQSALTQPPSASGSPGQSVTISCTGTSSDVGGYNYVSWYQQYPGKAPKLLIYGNSNRPSGVPDRFSGSKSGTSASLAITGLQAEDGADYYCQSYDSSLRVVFGGGTKVTVLG
# B2: P7D4 mutant single chain antibody am14 (scFv, not shown: a dimerising Fc or GST)
# scFv: B1 scFv with T35A, S50E, E56S, S57R
# B3: P7D4 mutant single chain antibody am20 (scFv, not shown: a dimerising Fc or GST)
# scFv: B1 scFv with T35N, S50A, S53M
# B4: P7D4 mutant single chain antibody am42 (scFv, not shown: a dimerising Fc or GST)
# scFv: QVQLQESGGGLVQPGRSLRLSCAASGFTFSSYAMHWVRQAPGKGLEWVSAISSSGGSTYYADSVKGRFTISRDNSKNTLYLQMNSLRAEDTAVYYCAKDRRGSHADAFDVWGQGTLVTVSSGGGGSGGGGSGGGGSQSALTQPPSASGSPGQSVTISCTGTSSDVGLMHNVSWYQQYPGKAPKLLIYKSSSRPSGVPDRFSGSKSGTSASLAITGLQAEDGADYYCQSYDSSLRVVFGGGTKVTVLG
# B5: P7D4 mutant single chain antibody am35 (scFv, not shown: a dimerising Fc or GST)
# scFv: B4 scFv with L167H, M168K, H169F, N170P, S189N, S190L, S191L
# B6: P7D4 mutant single chain antibody T2-23 (scFv, not shown: a dimerising Fc or GST)
# scFv: B1 scFv with T31S, T35H, S50A, E56R, K65E, F108L, D109N
# Molecular target: T1, recombinant human GPC2 (rhGPC2)
# Assay: ELISA, antigen coated 100 ng/well, HRP anti-human Fc detection
# Description: (§1) In order to analyze the binding specificity of P7D4 series antibody to GPC3 protein, binding activity of P7D4 series single chain antibody to human GPC family members, including recombinant human GPC1 (rhGPC1), GPC2 (rhGPC2), GPC3 (rhGPC3), GPC5 (rhGPC5) and GPC6 (rhGPC6) (purchased from Andy Biosciences (Shanghai) Co., Ltd.) was detected by ELISA, respectively.
# (§2) For this purpose, the above 5 antigens were diluted with 0.1 M NaHCO₃ (pH 9.6) coating solution and each well was coated with 100 ng at 50 μl/well overnight at 4° C. and blocked with 2% (w/v) BSA in PBST for 2 hours at room temperature. The plate was then rinsed for three times with PBST and PBST was removed. Subsequently, 100 ng of each antibody protein in PBST was added to each well plate, and the assay for each sample was performed in duplecate wells. After incubated for 2 hours at 37° C., the plates were rinsed for three times with PBST followed by addition of 100 μl/well HRP-labeled rabbit anti-human Fc antibody (purchased from Shanghai Rui Jin Biotechnology Co., Ltd.) diluted at 1:20000 and incubated at 37° C. for 1 hour. For detection, wells were rinsed for three times with PBST followed by three times with PBS and finally with TMB for development for 10 min. The chromogenic reaction was stopped with 50 μl of 2 M H₂SO₄ per well, and extinction value was measured at 450 nm with enzyme-linked immunodetector (Bio-Rad).
row,Binder,binding result
1,B1,no binding (tested: 100 ng of each antibody protein per well)
2,B2,no binding (tested: 100 ng of each antibody protein per well)
3,B3,no binding (tested: 100 ng of each antibody protein per well)
4,B4,no binding (tested: 100 ng of each antibody protein per well)
5,B5,no binding (tested: 100 ng of each antibody protein per well)
6,B6,no binding (tested: 100 ng of each antibody protein per well)

# Molecular target: T2, recombinant human GPC6 (rhGPC6)
# Assay: as above
# Description: as §1, §2
row,Binder,binding result
1,B1,no binding (tested: 100 ng of each antibody protein per well)
2,B2,no binding (tested: 100 ng of each antibody protein per well)
3,B3,no binding (tested: 100 ng of each antibody protein per well)
4,B4,no binding (tested: 100 ng of each antibody protein per well)
5,B5,no binding (tested: 100 ng of each antibody protein per well)
6,B6,no binding (tested: 100 ng of each antibody protein per well)

# Molecular target: T3, recombinant human GPC5 (rhGPC5)
# Assay: as above
# Description: as §1, §2
row,Binder,binding result
1,B1,no binding (tested: 100 ng of each antibody protein per well)
2,B2,no binding (tested: 100 ng of each antibody protein per well)
3,B3,no binding (tested: 100 ng of each antibody protein per well)
4,B4,no binding (tested: 100 ng of each antibody protein per well)
5,B5,no binding (tested: 100 ng of each antibody protein per well)
6,B6,no binding (tested: 100 ng of each antibody protein per well)

# Molecular target: T4, recombinant human GPC1 (rhGPC1)
# Assay: as above
# Description: as §1, §2
row,Binder,binding result
1,B1,no binding (tested: 100 ng of each antibody protein per well)
2,B2,no binding (tested: 100 ng of each antibody protein per well)
3,B3,no binding (tested: 100 ng of each antibody protein per well)
4,B4,no binding (tested: 100 ng of each antibody protein per well)
5,B5,no binding (tested: 100 ng of each antibody protein per well)
6,B6,no binding (tested: 100 ng of each antibody protein per well)

# Molecular target: T5, human GPC3 recombinant protein (purchased from Shanghai Rui Jin Biotechnology Co., Ltd.) (human, UniProt P51654 25-559, limits assumed)
# T5 construct: Bought recombinant protein; also called huGPC3; antigen GPC3
# Assay: SPR Biacore T200, antibody captured by anti-human IgG (Fc), GPC3 as analyte, single-cycle kinetics, 25 °C
# Description: To quantitatively analyze the binding of P7D4 series antibodies to GPC3, the affinity and kinetic parameters of P7D4 series single-chain antibodies were measured by capture method using Biacore T200 system (from GE). An anti-human IgG (Fc) antibody (purchased from GE) was coupled to carboxymethyl dextran surface of sensor chip CM5 through primary amino with NHS/EDC coupling according to the manufacturer's instructions. Measurements were performed in 1×HBS-EP+working buffer at 25° C., 30 μl/min, and regeneration condition was 3 M MgCl₂, 10 μl/min for 30 seconds. In each round of the testing cycle, the antibody to be tested is firstly captured onto the chip. GPC3 of a certain concentration flowed over the chip surface. The interaction between human GPC3 and the captured antibody caused the change of the molecular concentration on the surface of the sensor chip which was measured according to changes in SPR Signal and expressed in resonance units (RU). Time vs resonance unit (RU) was plotted. The resulting sensorgram documents the entire reaction including the binding and dissociation processes (FIG. 4). In all single-cycle kinetics, GPC3 concentrations were 5 nM, 10 nM, 20 nM, 40 nM and 80 nM, respectively. The resulting curves were evaluated using Biacore T200 evaluation software and the affinity KD values were calculated.
Kd [pM],koff [s⁻¹],kon [M⁻¹ s⁻¹],Binder
75.6,4.08e-05,539000,B1
64.6,4.43e-05,673000,B2
306,6.47e-05,212000,B3
82.1,6.7e-05,816000,B4
71.4,5.2e-05,738000,B5
